Test: protease stability score; higher = more stable; yeast display proteolysis, trypsin and chymotrypsin;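 also: relative to predicted unfolded state with 0 unfolded-like and 1 meaning tenfold more protease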

Q: Which protease stability score does the source give for “DEDTEDLKRLIKLFVDLIRTGDWEELEKLLDPNVRLHFNGRDYHGRELALELMKVFGVDHIQLREVRVVNGKAENRTELIVNGREHEEHVIMEKIDGRWRIRSFEFR” here?
A: 1.3

Q: Which protease stability score does the source give for “SEEEEWLRRYRHLFKHLWTTGDWRTLEELLDPRTRIDIDVGDKRYHIHGREDAVEFFHRERRELGIDHIEDKRTRVIDGQVEIHGKIHVDGRDETRTIHVIVVNGRMKYLYFHVE” here?
A: 0.5

Q: For “SEEETHVKEAVKRSVDFLETGDERLFRELFDPNVRLIVNVGNKRVELHGWEEVVRWLREARLHRVILRTIRIQGDKAEVEGDVDGEINGRHDLHIIEWHFIVINGRFHSVSVRIE”, which protease stability score is on record?
A: 1.05

Q: For “SEDDHELEKLIRLWYDSVLTGDERTINELFDPNTRLEINGKVLHGMENFHRFVHTFLHHIRLKRIEIEDIKYINGVAHIDSRMVGDINGKDVRYETQFLVQKVDGKWVIKAVIIR”, which protease stability score is on record?
A: 2.08

Q: For “DEVKKFLDELLEILRKYSETGDEDSYTEMFDPNTRLLFEGRKFVGREEAIKFLRRVDVFSIKNFTMRHVETQGDWLHIDGEVLLLIIFNGKTFELKTKITFIMLKIDGRWILHAEEIR”, which protease stability score is on record?
A: 1.71

Q: With “EERNKFAEDFSRIDTESHRTGDEHSLLRLFDPHARIHQGDFEMHGWEEFSRIMRHEIERYKNATFEVRVDRVDVQGDKMISDGRLHIHQGDKIREYRIFIIVTKVNGQWHIEEVHIV” as the sequence, how does the protease stability score read?
A: 1.11

Q: Which protease stability score does the source give for “DEEEDHERRFLEELLRDWVTGDENKLDELFDPDARNYINGRRYHGREDVREVLKLLKDRIDHIEMTDIKDVKIQGDKMRFDTRVHLRQGDKTIRIKTHFVIWKVNGKWRMEAVVIV” here?
A: 1.02

Q: Which protease stability score does the source give for “TEQDEIAERVAREIMTMLLTGDWQRLRELADPHVRTIIDGVHVHGWDRMIEVLEVLHREIRIHDIREHSIKVYNGRVEIITHNDGEIDGQRVESSERHDIIIVNGRIKTIRLDIR” here?
A: 1.34

Q: Which protease stability score does the source give for “DEEDHDLELFLQIMTHDMRTGNEDNLTRLLDPHVRLEWNGKEFHGRDVMRFWREELGHDNVEVHMRLKDRELQGDKLIIHGEIIHRYNGREIRLDIHFIAHKVDGKWIARVRNIQ” here?
A: 1.64

Q: With “DEKHELNEKALSEFLKIVHTGDERLVREMMDPHVRVHINGRDHHGMDDAVELMKFIKNMTVILTDKKIQGDKLEVHGIWIYNGVREETEIISEKVDGRWVIREVRHD” as the sequence, how does the protease stability score read?
A: 1.07

Q: With “DEDKKWVDEMIRLLLEYWRTGDEERIRQLADPNVRTHINGKEIHGMEIHLQYLREFMETFGVDHVELRIHHKDIQGDKIHLHVEIIYTVGDKEHRQEVHFRARKINGKWMIEHVEIK” as the sequence, how does the protease stability score read?
A: 1.25

Q: With “EEDRNDVEDFLRMFRTALTTGDEHILEHLADPNTRVDINGKEWHGWHHVSELHKKHLEDLGADHVEFRVHDFRIIGNKVHVDSRLIEHQGDKILIINTIIIQLKINGRWVIHELRFR” as the sequence, how does the protease stability score read?
A: 0.988

Q: Which protease stability score does the source give for “DHNKEAADHILHLLRQSWRTGDEEIFQRLIDPNVKLQVGDKQFHGREEVTRWIQLYLLRFKGITIHDIEVKEVRTYDGRVEAREIHHNHVNGQDHSLDVHLYIVKVNGQWRLESMHVN” here?
A: 1.77

Q: With “SEDEQHLRRMLKVWDTAVKTGDEHLLDRLADPDVRIDINGVELHGREELERMLKQMRIEFEDSDLNHVHIQGDKIHADTEVVVIIIINGREERRRLRIESIVWKVNGRWHFKEFRFK” as the sequence, how does the protease stability score read?
A: 1.4

Q: Which protease stability score does the source give for “DEDTKKAEEVLRMFDEAFRTGDEDILRELMDPNVRYVINGREFHGREEVTNAMRELHHRFDHFKSTHIKDHKIQGDKMDVHSTLTYHVNGKDIHVDSREVWVKVNGKWHLRKIIIH” here?
A: 2.24

Q: Which protease stability score does the source give for “REENEMLKRAIKHILRVLETGDFEDLSKMFDPHARLFFNGVLFMGRENVEHHWERERERYKNLRLHFRHVNYHVQGDKVFVEYHVDVTVGDKKWEVHFHFIVIKINGQWYNEDLEIEIR” here?
A: 1.66

Q: With “SEIEEDSRKASRDLMNSIRTGNEEVLKEMADPHVRTDINGREIHGMEKWLNELSEFLEKFKGAKIDLSLKDIRIQGEYIHIHMHVHLRFNGKSDNKDIEIIALKVDGRWLIQEWRIR” as the sequence, how does the protease stability score read?
A: 0.834

Q: For “DEDREQYREIMSHIWHSIHTGDEETQEDMADPDARFIIGDKTFIGWKQFYEKLREIRIHIDHVHIRHIEVQGDKFRVEFQIHRTIIYNGRNLHETTEAETHLHVVNGRLHSWSFRVR”, which protease stability score is on record?
A: 0.885

Q: For “DELRDEVRRWLTKLIEDHKTGDEKAMMELADPNVKVVIDGKELVGMELYEHFVRYWREHIRLTDLKIHDMRIQGDKVHAETRVEGNFNGKYRVIETRVLIVKINGRWFLKEIEID”, which protease stability score is on record?
A: 2.02

Q: For “SEEKKAWKLSLELHRRYVETGNEEDLIRFLDPHVRLEFNGQQYVGWEEVIRIMEELGFDVLKEIRLHSLDFQGEYVEVDGEVNGNINGRDRDHRIKFRMLKVDGKWLNHSVHVI”, which protease stability score is on record?
A: 1.36

Q: With “SDEEEDIERAIRLMHEIHETGDESVWEHLADPHVKVDFNGQERHGREDMIKIWHYLGVKHVFFRDIRVQGEFLVVHSEDNVDGKTFQIRYLVFKINGRWFLEEVEFD” as the sequence, how does the protease stability score read?
A: 0.942

Q: With “DEDHERSEIASKITYKIIETGNEDLFSHFADPNTRLHVNGVDSVGMEDVIKVHRKLWKDLGVDHFILHDQKVDVVDGVAEVRLDTRLRFNGREFETEVRFLVLKFNGRWWIRMIEFRVI” as the sequence, how does the protease stability score read?
A: 0.968

Q: For “DENKETIDRVYRLLDEALKTGDFEIFAYLMDPHVRNDVDGVDIVGRDLVKKVLEDIIRDLGFKHETLKVHDWRSINGRVHIDTEVELDVNGVDLRKRTIIIALKINGKWRITEIVFE”, which protease stability score is on record?
A: 2.33

Q: With “DEDTEVIERSITHWMKVLETGDWEDIERNADPNARMDINGREFHGREEVSRHLREDLDRLGIERVRVEIKHYRVQGEFIDIHGILRQGEYESKIHVRASKINGKWVLESLEVV” as the sequence, how does the protease stability score read?
A: 0.078

Q: Which protease stability score does the source give for “SEEERDMKEWLRLHVEALRTGDEHHLRHLMDPHTRIQVGDKEIHGMDEIARHVREIRQHVEIRVHHVEIIGDKIIMDVELRLIVHFDGKTFDIKTRFLLHIWKVNGRWILKSVHIE” here?
A: 1.21

Q: Which protease stability score does the source give for “SEDDEILERMLRELIHLIRTGDEDSIREMADPNVRLIINGKEFHGMEEYIKTWHRILERFDHLRHVELHDEHRFDGRVRIWGTLNHRIGDKHTRFTVHIVALKFNGRWILKSEEIT” here?
A: 1.36

Q: Which protease stability score does the source give for “SEDERDSEEWAKILIKLLETGDEDELRRLMDPHVRTEVIVNGRTITHHGREDLTEFLRKLGADVIDIERVRVIDGVVHLDSRSKQGEKHVTLHFEALKINGRWITERFHVKFH” here?
A: 1.3

Q: With “DEDKERADEMLEYILHYILTGDEDSLRELFDPHARLHVDGRDIIGWDKFNRKLIEIRQRTRIQSEHIHIQGDKLHVDGTLRINIHYNGQHLHIDLRSIHITVKINGRWVFKFMEIR” as the sequence, how does the protease stability score read?
A: 0.829

Q: Which protease stability score does the source give for “SEEEEILETVAKKMVDILETGDEDKLTRLADPDVRHRIDVDGRDLSYHGREEINRFMHHWKREWRIDSITVHRVHVINGQIHIDIEVRETVGDKHVIVRRELIIVIVDGRVKRVEIIFR” here?
A: 0.253

Q: With “EEERETDHRLTEKLRRIIRTGDEEEWSKLVDPNTRVIYGDKQDHGWEAWVRILKDLGAKHIDIEHVDIVNGRVEIHSHLTIGDKHVIIHHRIVHINGKLTEIYIEIHHK” as the sequence, how does the protease stability score read?
A: 0.694

Q: Which protease stability score does the source give for “DETTEKNERYIERLHHYLETGNEEELLHLFDPNTKFVQGDKEIIGREEVRHWEEEKRRKMGIKHWDFEFRRVRIIGEKLIIHGKEIINFENHRLERTVEIHLLLIDGRVKEVVYHVN” here?
A: 1.2

Q: For “HKLDEITKDMLEIFEKHSQTGDFQSLAKNVDPHARVDWDGRQFHGREDVQEVMIRLGVDHIEFKRIDIQGEWVHMDGQVYVNGRTTRTEFVSLKVNGRWYIHELRVR”, which protease stability score is on record?
A: 0.875

Q: For “DEHTEHSKKLADLIMEWLKTGNEEILRKRMDPNTKIHIEVDGREENTHGWEEFERWLKELGIKHFELKHVHIQGDKSFVDGTLEVNGQRRRIIFIFIVVDGRIQSIRVIVI”, which protease stability score is on record?
A: 2.12

Q: With “DEERKFWHELAELLFHIHLTGDEDMLRHLLDPHVRSDINGVELHGREQAAEHFHKLMKTLGVKHIHHKRMHTIGDKTIIHGESEVDGRILHVHNHFWVVNGKVEEVKMHIE” as the sequence, how does the protease stability score read?
A: 0.495

Q: For “SEEERDTIEFARLWLENYLTGDEETMKELADPRTLSTFRFENHHLHLHGMHLHFTWLHQIRIRHFQPREVSVVNGKTTIDGEYHGEVGDKSHTTRVIIRLEIVNGKIKSVEIEVK”, which protease stability score is on record?
A: 1.07

Q: With “DEVDEDEKHALHLLEHSIKTGDERMITEMMDPRYRLIINGQEFHGRELWIELWQRIKNIRINDVKFEELRVVGNKLRVRVHLDVQIGDKRYILDTEIVAVKVNGRWLNEEIIIR” as the sequence, how does the protease stability score read?
A: 1.39

Q: With “HDREKIAITFLKFLIHWHLTGNEDHLRENIDPHVRIRIHIDGKNNHLVGMEDWYKWVREELERADHLELRLDDVDVQGDKLHSDITNIIRIDGKTIVRKVHVHLDVVNGQVKSIEIEIR” as the sequence, how does the protease stability score read?
A: 2.54

Q: Which protease stability score does the source give for “DEEKKDIKHWLEKWITDTRTGDEEEILKMLDPNVRTEQGEFELHGRDALKHYIDRFDHIHEVDLEVKHVTEQGDKLHIKGTLRMDGIVDGVRRTFYFRTILIVRKIDGRWAVSRVILL” here?
A: 2.32

Q: For “SETREIEEEWLRMMFENFITGDWKEIYKYADPNMRFTLSIGEKQERRHGRESMFHAFRRLEEDLGAKHVRLEDSTVYNGRVEINITLEDGDKHINRYIHIQVVNGRMHTIEVSFR”, which protease stability score is on record?
A: 0.628

Q: Which protease stability score does the source give for “SHEEEMHLHVAELMLKLLLTGNEEELAKLMDPNVQTEIDGRSYHGRELIIDLIRHSREKLGVNHSELKRSHVRLVDGRLHVHLDSRFLVNGVWLDVEIEMFVLKINGKWVIESVHVRVR” here?
A: 0.718

Q: For “DEEEKDAKEIFRLSHDWWRTGDEMLIHMNFDPNVRLRIGDKSSHGREDVARIIVKVYKDFGVKHFEIREVDHQGEKIKLDGVSNFNGKEVKIEISSNKVNGVWVIKEVNIQ”, which protease stability score is on record?
A: 1.11

Q: Which protease stability score does the source give for “SEDEEEAHEFLKRLDNAHRTGDEDFVYEQMDPDVRIDINGREWHGRELAREYLSIYGIKVMEVKRVNVYDGRINVDGHVEFNGVRNKTTIIMQKIDGRWRVKSITIK” here?
A: 1.41

Q: Which protease stability score does the source give for “SHEQEEARFFLDVLIEWFLTGDEEHMMKNADPNVRIEVGDKHLHGRELTYEWLKELRFKHHHVHRVTSQGDKVYYDVKVDGHINGVDRHSLEIIITLKFDGRWILKSIHVR” here?
A: 1.95

Q: With “DEEEEHSKKMTDWWLHAVLTGDEEKLRQMIDPDVKLHINGKDHVGREEAVKSLRELLHRLGVNHIHVERMDVVGDKVILNFHLRVGDKEHETRVILHIYNGRIKEIRIHIH” as the sequence, how does the protease stability score read?
A: 2.16

Q: With “HDHDKHLDRLEELMLRWWKTGDWDKILKYADPHTRSDVNGKEYHGRESMVRAFEHVLKMLGIDVVYDQSHHLQGEKAKFHQESRVGDKRVEVIIIITIVDGRVTEFEVEVHHN” as the sequence, how does the protease stability score read?
A: 0.722

Q: For “SEEEEEAERIYRNWLHNLHTGNEESERLMADPDVRYEINGVERVGWEEVHHFLREIRVHLRHVEIKHSDLINGRAHIEGHVDMEVRVNGVTMRIRTDTILRVVVIDGRLKSVSQEIL”, which protease stability score is on record?
A: 0.648

Q: With “HEEEKSRKKEFEEYVRSVKTGDERLLTEMADPNARVHIGDKTLIGRELMHEMWHEQLKQIDVFHDIKTTHSEVQGDKIHMHVVEDIIIGDKRHTIRLRMIAWKFNGKWLVEEVRFE” as the sequence, how does the protease stability score read?
A: 0.435

Q: For “HEDERHLHEIIKRWFEALLTGDEHVLERLLDPNARIDIDGREFIGMEKFAHDISRIKNMQIKHHHIKHVRYVDGVMHWHGQRHGVVNGQEKNVEVIINLFVYDGRFKSMHIKDD”, which protease stability score is on record?
A: 1.06

Q: For “TEDDKDWEEIYKMLEHASKTGDERIFNKFIDPNTMSVVNGVDLIGMERWRNHWEHARFRHIEFRHVEIIDGRLDIQGHLRGEYNGREIRTDMRLIILKIDGRWIHKSFEFH”, which protease stability score is on record?
A: 0.944

Q: With “DEDEELTRQIIEHIERNIETGDERRYRELVDPNARVDYNGVDKHGMHAILEVWNHIQHEFRGATIEHSRVRDWRFQGDKVILNFEHYFRIGDKNWRLDTRIIVDKVDGRWVIREVQIR” as the sequence, how does the protease stability score read?
A: 1.47

Source: the NTF2 design screens of Basanta et al. (2020)
